Assay results from the RNAGym collection of RNA variant scans (doi:10.1093/molbev/msab373).

B1: Azoarcus group I ribozyme (parent)
chain: GUGCCUUGCGCCGGGAAACCACGCAAGGGAUGGUGUCAAAUUCGGCGAAACCUAAGCGCCCGCCCGGGCGUAUGGCAACGCCGAGCCAAGCUUCGGCGCCUGCGCCGAUGAAGGUGUAGAGACUAGACGGCACCCACCUAAGGCAAACGCUAUGGUGAAGGCAUAGUCCAGGGAGUGGCGAAAGUCACACAAACCGG

Variants of: B1
Assay: reverse-splicing fitness (ratio to wild type); higher = more active; in vitro selection; Mg2+ level not given
Procedure, shortened: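 An in vitro group I ribozyme library with randomized positions was T7-transcribed and gel-purified. In triplicate, 10 pmol RNA in EPPS pH 7.5 was reacted with 50 pmoles of a 30-nt RNA substrate for 1 h at 37 °C across several added MgCl2 levels (1–48 mM), then stopped with EDTA. Products were reverse transcribed from a substrate-complementary primer, PCR-amplified and sequenced (HiSeq 4000). Fitness is a variant's read proportion after selection over that before, normalised to wild type.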

Variant	reverse-splicing fitness
GUGCCUUGCGCCGGGAAACCACGCAAGGGAUGGUGUCAAAUUCGGCGAAACCUAAGCGCCCGCCCGGGCGUAUGGCAACGCCGAGCCAAGCUUCGGCGCCUGCGCCGAUGCAGGUGUAGUGACUAGACGGCACCCACCUAAGGCCAACGAUAUGGUGAAGGCAUAGUCCAGGGAGCGGCGAAAGUCACACAAACCGG	0.0101
GUGCCUUGCGCCGGGAAACCACGCAAGGGAUGGUGUCAAAUUCGGCGAAACCUAAGCGCCCGCCCGGGCGUAUGGCAACGCCGAGCCAAGCUUCGGCGCCUGCGCCGAUGCAGGUGUAGUGACUAGACGGCACCCACCUAAGGCCAACGAUAUGGUGAAGGCAUAGUCCAGGGAGGGGCGAAAGUCACACAAACCGG	0.00735
GUGCCUUGCGCCGGGAAACCACGCAAGGGAUGGUGUCAAAUUCGGCGAAACCUAAGCGCCCGCCCGGGCGUAUGGCAACGCCGAGCCAAGCUUCGGCGCCUGCGCCGAUGCAGGUGUAGUGACUAGACGGCACCCACCUAAGGCCAACGGUAUGGUGAAGGCAUAGUCCAGGGAGUGGCGAAAGUCACACAAACCGG	0.0809
GUGCCUUGCGCCGGGAAACCACGCAAGGGAUGGUGUCAAAUUCGGCGAAACCUAAGCGCCCGCCCGGGCGUAUGGCAACGCCGAGCCAAGCUUCGGCGCCUGCGCCGAUGCAGGUGUAGUGACUAGACGGCACCCACCUAAGGCCAACGGUAUGGUGAAGGCAUAGUCAAGGGAGUGGCGAAAGUCACACAAACCGG	0.00389
GUGCCUUGCGCCGGGAAACCACGCAAGGGAUGGUGUCAAAUUCGGCGAAACCUAAGCGCCCGCCCGGGCGUAUGGCAACGCCGAGCCAAGCUUCGGCGCCUGCGCCGAUGCAGGUGUAGUGACUAGACGGCACCCACCUAAGGCCAACGGUAUGGUGAAGGCAUAGUCAAGGGAGAGGCGAAAGUCACACAAACCGG	0.00246
GUGCCUUGCGCCGGGAAACCACGCAAGGGAUGGUGUCAAAUUCGGCGAAACCUAAGCGCCCGCCCGGGCGUAUGGCAACGCCGAGCCAAGCUUCGGCGCCUGCGCCGAUGCAGGUGUAGUGACUAGACGGCACCCACCUAAGGCCAACGGUAUGGUGAAGGCAUAGUCAAGGGAGCGGCGAAAGUCACACAAACCGG	0.00297
GUGCCUUGCGCCGGGAAACCACGCAAGGGAUGGUGUCAAAUUCGGCGAAACCUAAGCGCCCGCCCGGGCGUAUGGCAACGCCGAGCCAAGCUUCGGCGCCUGCGCCGAUGCAGGUGUAGUGACUAGACGGCACCCACCUAAGGCCAACGGUAUGGUGAAGGCAUAGUCAAGGGAGGGGCGAAAGUCACACAAACCGG	0.00224
GUGCCUUGCGCCGGGAAACCACGCAAGGGAUGGUGUCAAAUUCGGCGAAACCUAAGCGCCCGCCCGGGCGUAUGGCAACGCCGAGCCAAGCUUCGGCGCCUGCGCCGAUGCAGGUGUAGUGACUAGACGGCACCCACCUAAGGCCAACGGUAUGGUGAAGGCAUAGUCGAGGGAGUGGCGAAAGUCACACAAACCGG	0.00714
GUGCCUUGCGCCGGGAAACCACGCAAGGGAUGGUGUCAAAUUCGGCGAAACCUAAGCGCCCGCCCGGGCGUAUGGCAACGCCGAGCCAAGCUUCGGCGCCUGCGCCGAUGCAGGUGUAGUGACUAGACGGCACCCACCUAAGGCCAACGGUAUGGUGAAGGCAUAGUCGAGGGAGAGGCGAAAGUCACACAAACCGG	0.00265
GUGCCUUGCGCCGGGAAACCACGCAAGGGAUGGUGUCAAAUUCGGCGAAACCUAAGCGCCCGCCCGGGCGUAUGGCAACGCCGAGCCAAGCUUCGGCGCCUGCGCCGAUGCAGGUGUAGUGACUAGACGGCACCCACCUAAGGCCAACGGUAUGGUGAAGGCAUAGUCGAGGGAGCGGCGAAAGUCACACAAACCGG	0.0032
GUGCCUUGCGCCGGGAAACCACGCAAGGGAUGGUGUCAAAUUCGGCGAAACCUAAGCGCCCGCCCGGGCGUAUGGCAACGCCGAGCCAAGCUUCGGCGCCUGCGCCGAUGCAGGUGUAGUGACUAGACGGCACCCACCUAAGGCCAACGGUAUGGUGAAGGCAUAGUCGAGGGAGGGGCGAAAGUCACACAAACCGG	0.00227
GUGCCUUGCGCCGGGAAACCACGCAAGGGAUGGUGUCAAAUUCGGCGAAACCUAAGCGCCCGCCCGGGCGUAUGGCAACGCCGAGCCAAGCUUCGGCGCCUGCGCCGAUGCAGGUGUAGUGACUAGACGGCACCCACCUAAGGCCAACGGUAUGGUGAAGGCAUAGUCUAGGGAGUGGCGAAAGUCACACAAACCGG	0.0105
GUGCCUUGCGCCGGGAAACCACGCAAGGGAUGGUGUCAAAUUCGGCGAAACCUAAGCGCCCGCCCGGGCGUAUGGCAACGCCGAGCCAAGCUUCGGCGCCUGCGCCGAUGCAGGUGUAGUGACUAGACGGCACCCACCUAAGGCCAACGGUAUGGUGAAGGCAUAGUCUAGGGAGAGGCGAAAGUCACACAAACCGG	0.00402
GUGCCUUGCGCCGGGAAACCACGCAAGGGAUGGUGUCAAAUUCGGCGAAACCUAAGCGCCCGCCCGGGCGUAUGGCAACGCCGAGCCAAGCUUCGGCGCCUGCGCCGAUGCAGGUGUAGUGACUAGACGGCACCCACCUAAGGCCAACGGUAUGGUGAAGGCAUAGUCUAGGGAGCGGCGAAAGUCACACAAACCGG	0.00313
GUGCCUUGCGCCGGGAAACCACGCAAGGGAUGGUGUCAAAUUCGGCGAAACCUAAGCGCCCGCCCGGGCGUAUGGCAACGCCGAGCCAAGCUUCGGCGCCUGCGCCGAUGCAGGUGUAGUGACUAGACGGCACCCACCUAAGGCCAACGGUAUGGUGAAGGCAUAGUCUAGGGAGGGGCGAAAGUCACACAAACCGG	0.0023
